The text below walks through data of patent US20200339967, “CAS12C COMPOSITIONS AND METHODS OF USE” (The Regents of the University of California, published 2020).

Data set [1] addresses T1, Cas12c_1 (C2c3_1).
T1 chain: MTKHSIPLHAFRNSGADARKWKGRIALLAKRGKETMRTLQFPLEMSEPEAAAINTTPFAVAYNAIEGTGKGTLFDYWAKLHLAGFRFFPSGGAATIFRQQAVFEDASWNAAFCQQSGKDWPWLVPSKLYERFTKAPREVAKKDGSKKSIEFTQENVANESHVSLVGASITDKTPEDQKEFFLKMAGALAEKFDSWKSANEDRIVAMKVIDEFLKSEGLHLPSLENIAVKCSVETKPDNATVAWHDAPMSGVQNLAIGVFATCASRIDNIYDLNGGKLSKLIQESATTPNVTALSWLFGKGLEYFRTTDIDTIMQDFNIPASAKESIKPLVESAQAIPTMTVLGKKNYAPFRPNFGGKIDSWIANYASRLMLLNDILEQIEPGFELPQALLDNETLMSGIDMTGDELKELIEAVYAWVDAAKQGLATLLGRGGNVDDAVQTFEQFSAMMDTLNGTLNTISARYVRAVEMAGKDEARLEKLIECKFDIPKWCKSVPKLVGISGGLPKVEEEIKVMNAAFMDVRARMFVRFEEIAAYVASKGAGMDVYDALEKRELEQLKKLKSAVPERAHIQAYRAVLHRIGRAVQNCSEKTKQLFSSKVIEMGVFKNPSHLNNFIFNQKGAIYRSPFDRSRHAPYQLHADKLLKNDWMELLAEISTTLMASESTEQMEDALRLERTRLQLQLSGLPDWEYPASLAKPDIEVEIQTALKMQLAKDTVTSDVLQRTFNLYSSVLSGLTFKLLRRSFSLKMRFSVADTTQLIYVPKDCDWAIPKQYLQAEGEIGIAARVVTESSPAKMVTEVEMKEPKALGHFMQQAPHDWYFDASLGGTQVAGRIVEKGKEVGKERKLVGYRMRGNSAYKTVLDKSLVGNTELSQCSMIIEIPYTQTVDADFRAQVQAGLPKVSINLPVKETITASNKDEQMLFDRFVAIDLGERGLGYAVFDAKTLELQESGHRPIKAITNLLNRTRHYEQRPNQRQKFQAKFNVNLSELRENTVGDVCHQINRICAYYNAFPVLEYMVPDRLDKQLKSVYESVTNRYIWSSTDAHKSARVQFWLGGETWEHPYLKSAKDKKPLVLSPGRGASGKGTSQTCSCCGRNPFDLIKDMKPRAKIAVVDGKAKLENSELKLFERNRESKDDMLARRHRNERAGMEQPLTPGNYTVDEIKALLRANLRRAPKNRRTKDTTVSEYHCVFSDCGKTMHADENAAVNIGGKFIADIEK
Kind of data set: pulldown; trancRNA co-purified with Cas12c and guide RNA; RNA sequencing and urea-PAGE; long vs short form not distinguished in text. From the text: FIG. 3. The Cas12c CRISPR/Cas locus (for the Cas12c_1 protein) was transferred to and expressed in E. coli. Results from the RNA mapping of the Cas12c locus are presented (Top). In addition, the Cas12c protein was tagged and purified, and the RNA that was associated with the protein was sequenced, and results from the RNA mapping are presented (bottom). Both mapping results indicated the existence of a highly transcribed non-coding transcript adjacent to the Cas1-encoding sequence but on the opposite side of the Cas1-encoding sequence as the CRISPR array (Small repeating aligned arrows represent the repeats of the CRISPR array). The highly transcribed noncoding RNA is not complementary to the directed repeat as are transactivating CRISPR RNAs (tracrRNA). The transactivating noncoding RNA is referred herein as “trancRNA”.
FIG. 4. RNAs that pulled down (co-purified) with the Cas12c protein were run on urea-PAGE gels, confirming the presence of guide RNA and trancRNA.

The target in data set [2] is T1, Cas12c_1 (C2c3_1). Kind of data set: pulldown; trancRNA co-purified with Cas12c and guide RNA; long vs short form not distinguished in text.

B1: Cas12c_1 trancRNA (long) (ssRNA)
RNA: AUACCACCCGUGCAUUUCUGGAUCAAUGAUCCGUACCUCAAUGUCCGGGCGCGCAGCUAGAGCGACCUGAAAUCUGCACGAAAACCGGCGAAAGCCGGUUUUUUGU
On to B1, for which, in the data set with Cas12c_1 (C2c3_1) [1], the binding result was “binds”.

B2: Cas12c_1 trancRNA (short) (ssRNA)
RNA: AUACCACCCGUGCAUUUCUGGAUCAAUGAUCCGUACCUCAAUGUCCGGGCGCGCAGCUAGAGCGACCUGAAAUCU
On to B2, for which, in the data set with Cas12c_1 (C2c3_1) [2], the binding result was “binds”.
